These results are taken from US20200199241A1 (Chugai, published 2020).

Sequences and labels used below:
B1: IgG1-F813 (antibody)
heavy: QVQLQESGPGLVKPSETLSLTCAVSGHSISHDHAWSWVRQPPGEGLEWIGFISYSGITNYNPSLQGRVTISRDNSKNTLYLQMNSLRAEDTAVYYCARSLARTTAMDYWGEGTLVTVSSASTKGPSVFPLAPSSKSTSGGTAALGCLVKDYFPEPVTVSWNSGALTSGVHTFPAVLQSSGLYSLSSVVTVPSSSLGTQTYICNVNHKPSNTKVDKKVEPKSCDKTHTCPPCPAPELLGGPSVFLFPPKPKDTLYISRTPEVTCVVVDVSHEDPEVKFNWYVDGVEVHNAKTKPREEQYNSTYRVVSVLTVLHQDWLNGKEYKCKVSNKALPAPIEKTISKAKGQPREPQVYTLPPSRDELTKNQVSLTCLVKGFYPSDIAVEWESNGQPENNYKTTPPVLDSDGSFFLYSKLTVDKSRWQQGNVFECSVMHEALHYHYTQKSLSLSP
light: not shown
notes: EU numbering; copies: 2 + 2
B2: IgG1-F823 (antibody)
heavy: QVQLQESGPGLVKPSETLSLTCAVSGHSISHDHAWSWVRQPPGEGLEWIGFISYSGITNYNPSLQGRVTISRDNSKNTLYLQMNSLRAEDTAVYYCARSLARTTAMDYWGEGTLVTVSSASTKGPSVFPLAPSSKSTSGGTAALGCLVKDYFPEPVTVSWNSGALTSGVHTFPAVLQSSGLYSLSSVVTVPSSSLGTQTYICNVNHKPSNTKVDKKVEPKSCDKTHTCPPCPAPELLGGDSVFLFPPKPKDYLYISRTPEVTCVVVDVSHEDPEVKFNWYVDGVEVHNAKTKPREEQYNSTYRVVSVLTVLHQDFLNGKEYKCKVSNKALPAPIEKTISKAKGQPREPQVYTLPPSRDELTKNQVSLTCLVKGFYPSDIAVEWESNGQPENNYKTTPPVLDSDGSFFLYSKLTVDKSRWQQGNVFSCSVMHEALHYHYTQKSLSLSP
light: not shown
notes: EU numbering; copies: 2 + 2
B3: IgG1-F820 (antibody)
heavy: QVQLQESGPGLVKPSETLSLTCAVSGHSISHDHAWSWVRQPPGEGLEWIGFISYSGITNYNPSLQGRVTISRDNSKNTLYLQMNSLRAEDTAVYYCARSLARTTAMDYWGEGTLVTVSSASTKGPSVFPLAPSSKSTSGGTAALGCLVKDYFPEPVTVSWNSGALTSGVHTFPAVLQSSGLYSLSSVVTVPSSSLGTQTYICNVNHKPSNTKVDKKVEPKSCDKTHTCPPCPAPELKGGPKVFLFPPKPKDTLYISRTPEVTCVVVDVSHEDPEVKFNWYVDGVEVHNAKTKPREEQYNSTYRVVSVLTVLHQDWLNGKEYKCKVSNKALPAPIEKTISKAKGQPREPQVYTLPPSRDELTKNQVSLTCLVKGFYPSDIAVEWESNGQPENNYKTTPPVLDSDGSFFLYSKLTVDKSRWQQGNVFSCSVMHEALHYHYTQKSLSLSP
light: not shown
notes: EU numbering; copies: 2 + 2
B4: IgG1-F819 (antibody)
heavy: QVQLQESGPGLVKPSETLSLTCAVSGHSISHDHAWSWVRQPPGEGLEWIGFISYSGITNYNPSLQGRVTISRDNSKNTLYLQMNSLRAEDTAVYYCARSLARTTAMDYWGEGTLVTVSSASTKGPSVFPLAPSSKSTSGGTAALGCLVKDYFPEPVTVSWNSGALTSGVHTFPAVLQSSGLYSLSSVVTVPSSSLGTQTYICNVNHKPSNTKVDKKVEPKSCDKTHTCPPCPAPELLGGDSVFLFPPKPKDTLYISRTPEVTCVVVDVSHEDPEVKFNWYVDGVEVHEAKTKPREEQYNSTYRVVSVLTVLHQDWLNGKEYKCKVSNKALPAPIEKTISKAKGQPREPQVYTLPPSRDELTKNQVSLTCLVKGFYPSDIAVEWESNGQPENNYKTTPPVLDSDGSFFLYSKLTVDKSRWQQGNVFSCSVMHEALHYHYTQKSLSLSP
light: not shown
notes: EU numbering; copies: 2 + 2
B5: IgG1-F817 (antibody)
heavy: QVQLQESGPGLVKPSETLSLTCAVSGHSISHDHAWSWVRQPPGEGLEWIGFISYSGITNYNPSLQGRVTISRDNSKNTLYLQMNSLRAEDTAVYYCARSLARTTAMDYWGEGTLVTVSSASTKGPSVFPLAPSSKSTSGGTAALGCLVKDYFPEPVTVSWNSGALTSGVHTFPAVLQSSGLYSLSSVVTVPSSSLGTQTYICNVNHKPSNTKVDKKVEPKSCDKTHTCPPCPAPELLGGDSVFLFPPKPKDVLYISRTPEVTCVVVDVSHEDPEVKFNWYVDGVEVHNAKTKPREEQYNSTYRVVSVLQVLHADWLNGKEYKCKVSNKALPAPIEKTISKAKGQPREPQVYTLPPSRDELTKNQVSLTCLVKGFYPSDIAVEWESNGQPENNYKTTPPVLDSDGSFFLYSKLTVDKSRWQQGNVFSCSVMHEALHYHYTQKSLSLSP
light: not shown
notes: EU numbering; copies: 2 + 2
B6: IgG1-F816 (antibody)
heavy: QVQLQESGPGLVKPSETLSLTCAVSGHSISHDHAWSWVRQPPGEGLEWIGFISYSGITNYNPSLQGRVTISRDNSKNTLYLQMNSLRAEDTAVYYCARSLARTTAMDYWGEGTLVTVSSASTKGPSVFPLAPSSKSTSGGTAALGCLVKDYFPEPVTVSWNSGALTSGVHTFPAVLQSSGLYSLSSVVTVPSSSLGTQTYICNVNHKPSNTKVDKKVEPKSCDKTHTCPPCPAPELLGGDSVFLFPPKPKDVLYISRTPEVTCVVVDVSHEDPEVKFNWYVDGVEVHNAKTKPREEQYNSTYRVVSVLPVLHQDWLNGKEYKCKVSNKALPAPIEKTISKAKGQPREPQVYTLPPSRDELTKNQVSLTCLVKGFYPSDIAVEWESNGQPENNYKTTPPVLDSDGSFFLYSKLTVDKSRWQQGNVFSCSVMHEALHYHYTQKSLSLSP
light: not shown
notes: EU numbering; copies: 2 + 2
B7: IgG1-F831 (antibody)
heavy: QVQLQESGPGLVKPSETLSLTCAVSGHSISHDHAWSWVRQPPGEGLEWIGFISYSGITNYNPSLQGRVTISRDNSKNTLYLQMNSLRAEDTAVYYCARSLARTTAMDYWGEGTLVTVSSASTKGPSVFPLAPSSKSTSGGTAALGCLVKDYFPEPVTVSWNSGALTSGVHTFPAVLQSSGLYSLSSVVTVPSSSLGTQTYICNVNHKPSNTKVDKKVEPKSCDKTHTCPPCPAPELLGGDSVFLFPPKPKDVLYISATPEVTCVVVDVSHEDPEVKFNWYVDGVEVHNAKTKPREEQYNSTYRVVSVLTVLHQDWLNGKEYKCKVSNKALPAPIEKTISKAKGQPREPQVYTLPPSRDELTKNQVSLTCLVKGFYPSDIAVEWESNGQPENNYKTTPPVLDSDGSFFLYSKLTVDKSRWQQGNVFSCSVMHEALHYHYTQKSLSLSP
light: not shown
notes: EU numbering; copies: 2 + 2
B8: IgG1-F821 (antibody)
heavy: QVQLQESGPGLVKPSETLSLTCAVSGHSISHDHAWSWVRQPPGEGLEWIGFISYSGITNYNPSLQGRVTISRDNSKNTLYLQMNSLRAEDTAVYYCARSLARTTAMDYWGEGTLVTVSSASTKGPSVFPLAPSSKSTSGGTAALGCLVKDYFPEPVTVSWNSGALTSGVHTFPAVLQSSGLYSLSSVVTVPSSSLGTQTYICNVNHKPSNTKVDKKVEPKSCDKTHTCPPCPAPELRGGPKVFLFPPKPKDTLYISRTPEVTCVVVDVSHEDPEVKFNWYVDGVEVHNAKTKPREEQYNSTYRVVSVLTVLHQDWLNGKEYKCKVSNKALPAPIEKTISKAKGQPREPQVYTLPPSRDELTKNQVSLTCLVKGFYPSDIAVEWESNGQPENNYKTTPPVLDSDGSFFLYSKLTVDKSRWQQGNVFSCSVMHEALHYHYTQKSLSLSP
light: not shown
notes: copies: 2 + 2
B9: IgG1-F828 (antibody)
heavy: QVQLQESGPGLVKPSETLSLTCAVSGHSISHDHAWSWVRQPPGEGLEWIGFISYSGITNYNPSLQGRVTISRDNSKNTLYLQMNSLRAEDTAVYYCARSLARTTAMDYWGEGTLVTVSSASTKGPSVFPLAPSSKSTSGGTAALGCLVKDYFPEPVTVSWNSGALTSGVHTFPAVLQSSGLYSLSSVVTVPSSSLGTQTYICNVNHKPSNTKVDKKVEPKSCDKTHTCPPCPAPELLGGDSVFLFPPKPKDVLYVSRTPEVTCVVVDVSHEDPEVKFNWYVDGVEVHNAKTKPREEQYNSTYRVVSVLTVLHQDWLNGKEYKCKVSNKALPAPIEKTISKAKGQPREPQVYTLPPSRDELTKNQVSLTCLVKGFYPSDIAVEWESNGQPENNYKTTPPVLDSDGSFFLYSKLTVDKSRWQQGNVFSCSVMHEALHYHYTQKSLSLSP
light: not shown
notes: EU numbering; copies: 2 + 2
B10: IgG1-F814 (antibody)
heavy: QVQLQESGPGLVKPSETLSLTCAVSGHSISHDHAWSWVRQPPGEGLEWIGFISYSGITNYNPSLQGRVTISRDNSKNTLYLQMNSLRAEDTAVYYCARSLARTTAMDYWGEGTLVTVSSASTKGPSVFPLAPSSKSTSGGTAALGCLVKDYFPEPVTVSWNSGALTSGVHTFPAVLQSSGLYSLSSVVTVPSSSLGTQTYICNVNHKPSNTKVDKKVEPKSCDKTHTCPPCPAPELLGGPSVFLFPPKPKDTLYISRTPEVTCVVVDVSHEDPEVKFNWYVDGVEVHNAKTKPREEQYNSTYRVVSVLTVLHQDWLNGKEYKCKVSNKALPAPIEKTISKAKGQPREPQVYTLPPSRDELTKNQVSLTCLVKGFYPSDIAVEWESNGQPENNYKTTPPVLDSDGSFFLYSKLTVDKSRWQQGNVFSCSVMHEALHYHITQKSLSLSP
light: not shown
notes: EU numbering; copies: 2 + 2
B11: IgG1-F822 (antibody)
heavy: QVQLQESGPGLVKPSETLSLTCAVSGHSISHDHAWSWVRQPPGEGLEWIGFISYSGITNYNPSLQGRVTISRDNSKNTLYLQMNSLRAEDTAVYYCARSLARTTAMDYWGEGTLVTVSSASTKGPSVFPLAPSSKSTSGGTAALGCLVKDYFPEPVTVSWNSGALTSGVHTFPAVLQSSGLYSLSSVVTVPSSSLGTQTYICNVNHKPSNTKVDKKVEPKSCDKTHTCPPCPAPELLGGDSVFLFPPKPKDYLYISRTPEVTCVVVDVSHEDPEVKFNWYVDGVEVHNAKTKPREEQYNSTYRVVSVLTVLHQDYLNGKEYKCKVSNKALPAPIEKTISKAKGQPREPQVYTLPPSRDELTKNQVSLTCLVKGFYPSDIAVEWESNGQPENNYKTTPPVLDSDGSFFLYSKLTVDKSRWQQGNVFSCSVMHEALHYHYTQKSLSLSP
light: not shown
notes: EU numbering; copies: 2 + 2
B12: IgG1-F815 (antibody)
heavy: QVQLQESGPGLVKPSETLSLTCAVSGHSISHDHAWSWVRQPPGEGLEWIGFISYSGITNYNPSLQGRVTISRDNSKNTLYLQMNSLRAEDTAVYYCARSLARTTAMDYWGEGTLVTVSSASTKGPSVFPLAPSSKSTSGGTAALGCLVKDYFPEPVTVSWNSGALTSGVHTFPAVLQSSGLYSLSSVVTVPSSSLGTQTYICNVNHKPSNTKVDKKVEPKSCDKTHTCPPCPAPELLGGPSVFLFPPKPKDTLYISRTPEVTCVVVDVSHEDPEVKFNWYVDGVEVHNAKTKPREEQYNSTYRVVSVLTVLHQDWLNGKEYKCKVSNKALPAPIEKTISKAKGQPREPQVYTLPPSRDELTKNQVSLTCLVKGFYPSDIAVEWESNGQPENNYKTTPPVLDSDGSFFLYSKLTVDKSRWQQGNVFSCSVMHEALHYHYRQKSLSLSP
light: not shown
notes: EU numbering; copies: 2 + 2

The target in this assay is T1, soluble human FcRn complexed with β2-microglobulin (human, UniProt P61769 21-119, limits assumed).
T1 construct: also called hFcRn
T1 sequence (chain, as listed by the source limits assumed, chain 1 of 2): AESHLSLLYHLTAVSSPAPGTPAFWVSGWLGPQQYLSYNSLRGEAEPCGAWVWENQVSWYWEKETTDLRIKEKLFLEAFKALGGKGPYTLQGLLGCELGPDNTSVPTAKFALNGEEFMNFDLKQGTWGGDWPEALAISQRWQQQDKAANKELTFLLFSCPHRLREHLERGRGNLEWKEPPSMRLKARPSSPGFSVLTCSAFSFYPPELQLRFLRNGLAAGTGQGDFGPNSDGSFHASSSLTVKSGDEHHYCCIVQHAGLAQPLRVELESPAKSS
T1 sequence (P61769 21-119 limits assumed, chain 2 of 2): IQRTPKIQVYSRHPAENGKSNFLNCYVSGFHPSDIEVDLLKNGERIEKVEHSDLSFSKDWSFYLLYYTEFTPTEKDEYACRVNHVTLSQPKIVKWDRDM
Description: Biacore SPR, pH 7.0.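 Further: test antibodies captured on a Protein L chip with human FcRn flowed over as analyte, KD obtained as the ratio of dissociation to association rate constants.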
In turn, B1 returned a dissociation constant (Kd) of 280 nM. This lies in the sub-micromolar range. In the case of B2, the Kd was found to be 1100 nM. Compared with the last molecule, the Kd is about 3.9-fold higher.

Consider B3, for which binding was characterised by a dissociation constant (Kd) of 340 nM. In the case of B4, binding was characterised by a dissociation constant (Kd) of 140 nM. Compared with the last molecule, the Kd is about 2.4-fold lower. B5 had a dissociation constant Kd of 98 nM. With B6 the figure was 360 nM; with B7, 1600 nM. Molecule B8 yielded a Kd of 310 nM. This Kd lies about 5.2-fold lower than the previous one. Molecule B9 gave a dissociation constant (Kd) of 2500 nM. This Kd is about 8.1-fold higher than that of the molecule before. In turn, B10 returned a dissociation constant (Kd) of 120 nM. Compared with the last molecule, the Kd is about 21-fold lower. In turn, B11 registered a Kd of 1100 nM. With B12 the figure was 550 nM.
